Results reported in article doi:10.1101/2021.11.29.470412.

Target: Vrl1-Envy (S. cerevisiae)
Test: co-IP

- recovery of Vin1 in the co-IP: 64%
B1: Vin1-3HA (natural protein)
chain: MENDKASHASPSIGVNEFVVQGEISIDDSERSVKSVSVSISDDEDSKTDVQDNMATPSTRSKFQTDLAIDNRLLEKDPKYKKLFTEKRRRRRPESCINLMTKGKGTGQKDNINDQIFSLRILPGSDLNSLKDSLWIIKISTQPDVEKTIARAFSDFYWLYHQLQNNHWGKTIPPPTRSNILVEKDEFAINHLFMIRNNEKYDPIFNFKPEYIISLQLMAMIKHIFNDKVLRLDSNFIDFISWDDDLPESLQIVVDDSTFTGDKILMTSSQFRELKEFHKQSKKVESITNSHASLIPVTELTEIYISPTKLFSRKDYQRLFQPQSTDNTFNNNDPLIQEWIPKSKTLFTSLSFGSSAPTYQEASTEIQACHDWVSISKEQWKQLLYHVLQYIVDEAVKVNSVINEFTECLKQISLDEVIRANSELFLKFSKLNESFLKKFKGASRQDILKLIILFDENVRFCESFESILNQRLKLGKILSIIEVDLDKKKNFLDKLSPGNNNSNNEDLKIRTAEDEYRIVLKRYNRVKQSWEKIMEDILNERKEFEKREAAEVNSCLKSIRDLNMDEKKHYLQLWQDFVPDEHISQ
